Experimental data as given in the supplement of paper PMC10065799, “High-throughput profiling of sequence recognition by tyrosine kinases and SH2 domains using bacterial peptide display” (eLife, 2023).
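Note: 11-residue human phosphosite peptides and single-mutation variants displayed on the E. coli surface, counted by deep sequencing, each peptide's frequency after selection divided by its frequency in the unselected input library; frequency after pTyr selection over input frequency; kinase dosed for 20-30% of maximal phosphorylation in three min.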

The sequences below were run on AncSZ (assay: phosphorylation enrichment, bacterial display (enrichment ratio); higher = better substrate or ligand; peptides without Tyr show the background).
TVDASYCGGRG [ANTXR2_Y380_Y381C] gave a phosphorylation enrichment of 0.558. In the case of RRNSPYSQTMK [TET2_Y819], the phosphorylation enrichment was 1.02. EAEPFYRSLRD [NPHS1_Y1139_YF] was tested, and the phosphorylation enrichment was 0.792. GIVEDYRPRFY [ACVRL1_Y421_P424R] was tested, and the phosphorylation enrichment was 0.7. In the case of YIATQYSLCPR [LBR_Y166_R169C], the phosphorylation enrichment was 1.23. In the case of KDFTKYVAFIE [KDM4B_Y31_N29T_YF], the phosphorylation enrichment was 0.849. For REHTVYGEPRK [MAGEA4_Y240], the phosphorylation enrichment was 0.716. With GQDLFYEDEDL [PACS1_Y303] the phosphorylation enrichment was 1.28. Work on DFFDLYGGKKF [PTPN11_Y66_E69K_YF] yielded a phosphorylation enrichment of 1.01. STLEVYSCHPP [IL21R_Y317] showed a phosphorylation enrichment of 1.33. With MHDKEYYSVHN [MET_Y1234_Y1230H] the phosphorylation enrichment was 0.78. For RQRTAYFSLDT [CDH1_Y68], the phosphorylation enrichment was 0.669. AVEDQYYRVDC [FHL1_Y207_C209R] showed a phosphorylation enrichment of 3.59. With GVTLLCYGRYN [ADGRD1_Y85_Y85C] the phosphorylation enrichment was 1.31. For LRNIDYHRLDG [ATRX_Y2083_Y2084H], the phosphorylation enrichment was 0.497. LTRDIYKNDYY [ROS1_Y2110_A2106T] was tested, and the phosphorylation enrichment was 2.28. CHRQLYHKCTH [F12_Y58_Y53C] showed a phosphorylation enrichment of 0.497. Work on VRLTEYPCAGL yielded a phosphorylation enrichment of 0.638. With GPKSTYISSAA [GOLGA5_Y62] the phosphorylation enrichment was 0.731. Work on VAMELYVFRGV [GAN_Y471_G474R] yielded a phosphorylation enrichment of 1.16. With GESLTYVSTTF [C1orf162_Y120_A121V] the phosphorylation enrichment was 0.954. RIVTTYIRERE [DNM2_Y463] was tested, and the phosphorylation enrichment was 1.12. For RNVYYYSYLLK [PTEN_Y178_Y174N], the phosphorylation enrichment was 3.58. VLTSTYRGGGG [HBA1_Y141_K140T] gave a phosphorylation enrichment of 0.575. Work on KIFPEYLSNWT [AIFM1_Y347_L344F] yielded a phosphorylation enrichment of 0.914. In the case of SEASYYKSLNL [NGEF_Y289], the phosphorylation enrichment was 0.827. QGCSIYKDFFR [PLA2G2D_Y82_YF] was tested, and the phosphorylation enrichment was 1.44. With GDGRFYMMEAI [PGM1_Y66_K68M] the phosphorylation enrichment was 1.04. For HMRLRYLAAEE [CEP120_Y884_Q879H], the phosphorylation enrichment was 1.22. Work on TIMTNYNPNFC [ALK_Y1092_D1091N_YF] yielded a phosphorylation enrichment of 0.987. Sequence DFTSRYLSASD [PKHD1_Y828_N830S] has a phosphorylation enrichment of 0.79. With VQVAFYTMMMN [SPATA17_Y84_YF] the phosphorylation enrichment was 1.63. DKANRYFSPNV [PTEN_Y336_F341V] showed a phosphorylation enrichment of 0.446.

What follows are sequences tested against EPHB1 (UniProt P54762) in the same assay as above.
Chain of EPHB1 (P54762 whole entry, looked up): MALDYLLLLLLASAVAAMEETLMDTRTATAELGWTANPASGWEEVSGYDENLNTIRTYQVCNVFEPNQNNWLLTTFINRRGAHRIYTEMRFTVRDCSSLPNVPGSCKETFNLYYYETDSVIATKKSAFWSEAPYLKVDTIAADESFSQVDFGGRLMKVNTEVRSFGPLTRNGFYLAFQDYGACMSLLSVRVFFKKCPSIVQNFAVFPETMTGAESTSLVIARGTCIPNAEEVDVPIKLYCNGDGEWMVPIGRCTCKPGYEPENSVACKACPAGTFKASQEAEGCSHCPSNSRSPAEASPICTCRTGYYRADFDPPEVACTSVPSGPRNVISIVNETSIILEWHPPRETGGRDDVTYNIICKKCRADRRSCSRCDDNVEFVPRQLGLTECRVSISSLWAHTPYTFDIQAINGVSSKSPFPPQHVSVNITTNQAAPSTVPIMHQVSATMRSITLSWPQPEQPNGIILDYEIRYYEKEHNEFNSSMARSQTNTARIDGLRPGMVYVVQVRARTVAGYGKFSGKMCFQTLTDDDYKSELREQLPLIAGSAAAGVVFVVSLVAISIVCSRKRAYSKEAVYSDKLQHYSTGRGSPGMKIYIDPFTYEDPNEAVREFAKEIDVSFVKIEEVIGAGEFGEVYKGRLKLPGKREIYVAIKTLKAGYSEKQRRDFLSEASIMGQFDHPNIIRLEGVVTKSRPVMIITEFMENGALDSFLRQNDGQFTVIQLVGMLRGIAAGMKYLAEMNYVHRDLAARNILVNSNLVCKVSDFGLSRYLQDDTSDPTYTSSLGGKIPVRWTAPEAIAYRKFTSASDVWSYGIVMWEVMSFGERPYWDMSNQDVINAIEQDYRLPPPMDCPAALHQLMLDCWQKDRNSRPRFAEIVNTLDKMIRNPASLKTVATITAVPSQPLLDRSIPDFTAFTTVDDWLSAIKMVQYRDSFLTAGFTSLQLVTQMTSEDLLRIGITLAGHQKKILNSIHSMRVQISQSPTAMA
TVDASYCGGRG [ANTXR2_Y380_Y381C] showed a phosphorylation enrichment of 0.393. In the case of RRNSPYSQTMK [TET2_Y819], the phosphorylation enrichment was 1.07. EAEPFYRSLRD [NPHS1_Y1139_YF] was tested, and the phosphorylation enrichment was 0.461. GIVEDYRPRFY [ACVRL1_Y421_P424R] gave a phosphorylation enrichment of 0.375. Work on YIATQYSLCPR [LBR_Y166_R169C] yielded a phosphorylation enrichment of 0.511. In the case of KDFTKYVAFIE [KDM4B_Y31_N29T_YF], the phosphorylation enrichment was 0.55. For REHTVYGEPRK [MAGEA4_Y240], the phosphorylation enrichment was 0.588. In the case of GQDLFYEDEDL [PACS1_Y303], the phosphorylation enrichment was 0.922. DFFDLYGGKKF [PTPN11_Y66_E69K_YF] showed a phosphorylation enrichment of 0.44. STLEVYSCHPP [IL21R_Y317] showed a phosphorylation enrichment of 1.04. MHDKEYYSVHN [MET_Y1234_Y1230H] was tested, and the phosphorylation enrichment was 0.53. In the case of RQRTAYFSLDT [CDH1_Y68], the phosphorylation enrichment was 0.426. AVEDQYYRVDC [FHL1_Y207_C209R] gave a phosphorylation enrichment of 0.831. GVTLLCYGRYN [ADGRD1_Y85_Y85C] gave a phosphorylation enrichment of 0.707. In the case of LRNIDYHRLDG [ATRX_Y2083_Y2084H], the phosphorylation enrichment was 0.42. LTRDIYKNDYY [ROS1_Y2110_A2106T] gave a phosphorylation enrichment of 2.15. Sequence CHRQLYHKCTH [F12_Y58_Y53C] has a phosphorylation enrichment of 0.447. With VRLTEYPCAGL the phosphorylation enrichment was 0.456. In the case of GPKSTYISSAA [GOLGA5_Y62], the phosphorylation enrichment was 0.331. With VAMELYVFRGV [GAN_Y471_G474R] the phosphorylation enrichment was 0.707. Sequence GESLTYVSTTF [C1orf162_Y120_A121V] has a phosphorylation enrichment of 0.532. Work on RIVTTYIRERE [DNM2_Y463] yielded a phosphorylation enrichment of 0.477. Work on RNVYYYSYLLK [PTEN_Y178_Y174N] yielded a phosphorylation enrichment of 8.15. VLTSTYRGGGG [HBA1_Y141_K140T] gave a phosphorylation enrichment of 0.315. KIFPEYLSNWT [AIFM1_Y347_L344F] was tested, and the phosphorylation enrichment was 0.513. SEASYYKSLNL [NGEF_Y289] showed a phosphorylation enrichment of 0.499. Work on QGCSIYKDFFR [PLA2G2D_Y82_YF] yielded a phosphorylation enrichment of 1.11. Sequence GDGRFYMMEAI [PGM1_Y66_K68M] has a phosphorylation enrichment of 0.569. Sequence HMRLRYLAAEE [CEP120_Y884_Q879H] has a phosphorylation enrichment of 0.587. Sequence TIMTNYNPNFC [ALK_Y1092_D1091N_YF] has a phosphorylation enrichment of 0.43. In the case of DFTSRYLSASD [PKHD1_Y828_N830S], the phosphorylation enrichment was 0.549. Sequence VQVAFYTMMMN [SPATA17_Y84_YF] has a phosphorylation enrichment of 1.3. DKANRYFSPNV [PTEN_Y336_F341V] was tested, and the phosphorylation enrichment was 0.297.

Each sequence was assayed against EPHB2 (UniProt P29323) in the same assay as above.
Chain of EPHB2 (P29323 whole entry, looked up): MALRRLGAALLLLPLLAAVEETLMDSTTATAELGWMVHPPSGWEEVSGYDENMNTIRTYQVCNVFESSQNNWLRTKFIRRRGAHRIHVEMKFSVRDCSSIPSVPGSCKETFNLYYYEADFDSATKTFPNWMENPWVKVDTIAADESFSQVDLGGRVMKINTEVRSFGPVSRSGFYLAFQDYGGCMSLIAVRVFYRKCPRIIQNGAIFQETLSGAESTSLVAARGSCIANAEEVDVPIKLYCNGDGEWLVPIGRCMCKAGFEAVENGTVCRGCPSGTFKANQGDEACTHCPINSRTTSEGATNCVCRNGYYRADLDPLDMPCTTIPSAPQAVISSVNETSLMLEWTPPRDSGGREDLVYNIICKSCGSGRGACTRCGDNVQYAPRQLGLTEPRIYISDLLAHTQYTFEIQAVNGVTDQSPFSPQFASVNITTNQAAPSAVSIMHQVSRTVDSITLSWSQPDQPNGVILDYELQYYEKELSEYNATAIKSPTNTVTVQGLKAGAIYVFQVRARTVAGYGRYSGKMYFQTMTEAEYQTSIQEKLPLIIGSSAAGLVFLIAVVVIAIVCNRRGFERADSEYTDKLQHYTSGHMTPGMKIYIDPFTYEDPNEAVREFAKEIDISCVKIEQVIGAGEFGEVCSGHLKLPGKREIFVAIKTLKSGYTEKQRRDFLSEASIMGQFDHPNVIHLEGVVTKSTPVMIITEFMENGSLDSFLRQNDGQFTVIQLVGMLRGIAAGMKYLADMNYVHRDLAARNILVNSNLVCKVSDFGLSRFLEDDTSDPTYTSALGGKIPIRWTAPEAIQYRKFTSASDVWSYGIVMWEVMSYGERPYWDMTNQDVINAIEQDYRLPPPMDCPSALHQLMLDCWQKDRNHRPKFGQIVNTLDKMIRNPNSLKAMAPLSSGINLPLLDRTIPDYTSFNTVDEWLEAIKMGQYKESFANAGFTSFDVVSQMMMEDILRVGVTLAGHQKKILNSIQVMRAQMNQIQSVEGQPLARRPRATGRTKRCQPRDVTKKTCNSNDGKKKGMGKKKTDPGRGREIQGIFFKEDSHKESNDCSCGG
TVDASYCGGRG [ANTXR2_Y380_Y381C] was tested, and the phosphorylation enrichment was 0.516. Work on RRNSPYSQTMK [TET2_Y819] yielded a phosphorylation enrichment of 0.853. With EAEPFYRSLRD [NPHS1_Y1139_YF] the phosphorylation enrichment was 0.545. Work on GIVEDYRPRFY [ACVRL1_Y421_P424R] yielded a phosphorylation enrichment of 0.615. For YIATQYSLCPR [LBR_Y166_R169C], the phosphorylation enrichment was 0.817. In the case of KDFTKYVAFIE [KDM4B_Y31_N29T_YF], the phosphorylation enrichment was 0.626. In the case of REHTVYGEPRK [MAGEA4_Y240], the phosphorylation enrichment was 0.687. GQDLFYEDEDL [PACS1_Y303] showed a phosphorylation enrichment of 0.628. DFFDLYGGKKF [PTPN11_Y66_E69K_YF] gave a phosphorylation enrichment of 0.519. STLEVYSCHPP [IL21R_Y317] showed a phosphorylation enrichment of 1.34. Sequence MHDKEYYSVHN [MET_Y1234_Y1230H] has a phosphorylation enrichment of 0.497. RQRTAYFSLDT [CDH1_Y68] gave a phosphorylation enrichment of 0.293. For AVEDQYYRVDC [FHL1_Y207_C209R], the phosphorylation enrichment was 0.701. GVTLLCYGRYN [ADGRD1_Y85_Y85C] was tested, and the phosphorylation enrichment was 0.682. LRNIDYHRLDG [ATRX_Y2083_Y2084H] gave a phosphorylation enrichment of 0.405. For LTRDIYKNDYY [ROS1_Y2110_A2106T], the phosphorylation enrichment was 2.79. CHRQLYHKCTH [F12_Y58_Y53C] gave a phosphorylation enrichment of 0.461. VRLTEYPCAGL showed a phosphorylation enrichment of 0.457. Sequence GPKSTYISSAA [GOLGA5_Y62] has a phosphorylation enrichment of 0.506. VAMELYVFRGV [GAN_Y471_G474R] was tested, and the phosphorylation enrichment was 0.841. Work on GESLTYVSTTF [C1orf162_Y120_A121V] yielded a phosphorylation enrichment of 0.563. Sequence RIVTTYIRERE [DNM2_Y463] has a phosphorylation enrichment of 0.75. With RNVYYYSYLLK [PTEN_Y178_Y174N] the phosphorylation enrichment was 5.19. With VLTSTYRGGGG [HBA1_Y141_K140T] the phosphorylation enrichment was 0.376. Work on KIFPEYLSNWT [AIFM1_Y347_L344F] yielded a phosphorylation enrichment of 0.512. In the case of SEASYYKSLNL [NGEF_Y289], the phosphorylation enrichment was 0.56. QGCSIYKDFFR [PLA2G2D_Y82_YF] was tested, and the phosphorylation enrichment was 1.18. For GDGRFYMMEAI [PGM1_Y66_K68M], the phosphorylation enrichment was 0.553. With HMRLRYLAAEE [CEP120_Y884_Q879H] the phosphorylation enrichment was 0.552. In the case of TIMTNYNPNFC [ALK_Y1092_D1091N_YF], the phosphorylation enrichment was 0.784. Work on DFTSRYLSASD [PKHD1_Y828_N830S] yielded a phosphorylation enrichment of 0.564. VQVAFYTMMMN [SPATA17_Y84_YF] gave a phosphorylation enrichment of 1.15. DKANRYFSPNV [PTEN_Y336_F341V] showed a phosphorylation enrichment of 0.394.

What follows are sequences tested against FGFR1 (UniProt P11362) in the same assay as above.
Chain of FGFR1 (P11362 whole entry, looked up): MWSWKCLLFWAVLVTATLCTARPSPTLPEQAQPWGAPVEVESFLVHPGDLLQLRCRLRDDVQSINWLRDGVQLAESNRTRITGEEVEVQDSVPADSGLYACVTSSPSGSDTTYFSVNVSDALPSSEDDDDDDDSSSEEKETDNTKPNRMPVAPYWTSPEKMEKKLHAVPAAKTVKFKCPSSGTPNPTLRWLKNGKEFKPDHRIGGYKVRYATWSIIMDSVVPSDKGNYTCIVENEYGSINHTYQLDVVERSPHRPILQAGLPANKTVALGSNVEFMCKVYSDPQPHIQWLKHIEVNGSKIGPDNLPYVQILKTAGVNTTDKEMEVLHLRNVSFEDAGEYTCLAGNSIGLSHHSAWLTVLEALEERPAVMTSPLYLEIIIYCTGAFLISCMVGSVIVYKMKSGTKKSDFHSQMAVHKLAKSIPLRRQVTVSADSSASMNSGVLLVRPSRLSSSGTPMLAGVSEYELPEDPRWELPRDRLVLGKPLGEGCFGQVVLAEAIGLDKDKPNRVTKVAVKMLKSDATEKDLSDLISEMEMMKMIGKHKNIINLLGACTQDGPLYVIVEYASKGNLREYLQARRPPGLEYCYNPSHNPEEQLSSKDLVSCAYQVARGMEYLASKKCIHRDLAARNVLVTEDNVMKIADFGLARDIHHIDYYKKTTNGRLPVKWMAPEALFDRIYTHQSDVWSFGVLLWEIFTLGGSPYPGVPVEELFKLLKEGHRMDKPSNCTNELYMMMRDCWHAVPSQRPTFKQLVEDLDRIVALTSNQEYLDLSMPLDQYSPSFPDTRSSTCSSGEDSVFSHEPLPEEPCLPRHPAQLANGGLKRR
In the case of TVDASYCGGRG [ANTXR2_Y380_Y381C], the phosphorylation enrichment was 0.496. RRNSPYSQTMK [TET2_Y819] was tested, and the phosphorylation enrichment was 2.12. For EAEPFYRSLRD [NPHS1_Y1139_YF], the phosphorylation enrichment was 0.536. GIVEDYRPRFY [ACVRL1_Y421_P424R] was tested, and the phosphorylation enrichment was 0.409. YIATQYSLCPR [LBR_Y166_R169C] was tested, and the phosphorylation enrichment was 1.73. KDFTKYVAFIE [KDM4B_Y31_N29T_YF] was tested, and the phosphorylation enrichment was 0.442. With REHTVYGEPRK [MAGEA4_Y240] the phosphorylation enrichment was 0.664. In the case of GQDLFYEDEDL [PACS1_Y303], the phosphorylation enrichment was 0.626. For DFFDLYGGKKF [PTPN11_Y66_E69K_YF], the phosphorylation enrichment was 0.57. In the case of STLEVYSCHPP [IL21R_Y317], the phosphorylation enrichment was 0.698. In the case of MHDKEYYSVHN [MET_Y1234_Y1230H], the phosphorylation enrichment was 3.36. In the case of RQRTAYFSLDT [CDH1_Y68], the phosphorylation enrichment was 0.586. AVEDQYYRVDC [FHL1_Y207_C209R] was tested, and the phosphorylation enrichment was 8.7. With GVTLLCYGRYN [ADGRD1_Y85_Y85C] the phosphorylation enrichment was 0.435. In the case of LRNIDYHRLDG [ATRX_Y2083_Y2084H], the phosphorylation enrichment was 0.511. In the case of LTRDIYKNDYY [ROS1_Y2110_A2106T], the phosphorylation enrichment was 5.83. Sequence CHRQLYHKCTH [F12_Y58_Y53C] has a phosphorylation enrichment of 0.494. Work on VRLTEYPCAGL yielded a phosphorylation enrichment of 0.396. Sequence GPKSTYISSAA [GOLGA5_Y62] has a phosphorylation enrichment of 0.414. Work on VAMELYVFRGV [GAN_Y471_G474R] yielded a phosphorylation enrichment of 0.553. GESLTYVSTTF [C1orf162_Y120_A121V] was tested, and the phosphorylation enrichment was 0.508. In the case of RIVTTYIRERE [DNM2_Y463], the phosphorylation enrichment was 0.616. In the case of RNVYYYSYLLK [PTEN_Y178_Y174N], the phosphorylation enrichment was 9.89. For VLTSTYRGGGG [HBA1_Y141_K140T], the phosphorylation enrichment was 0.361. Work on KIFPEYLSNWT [AIFM1_Y347_L344F] yielded a phosphorylation enrichment of 0.811. Sequence SEASYYKSLNL [NGEF_Y289] has a phosphorylation enrichment of 1.29. For QGCSIYKDFFR [PLA2G2D_Y82_YF], the phosphorylation enrichment was 0.721. Sequence GDGRFYMMEAI [PGM1_Y66_K68M] has a phosphorylation enrichment of 0.511. In the case of HMRLRYLAAEE [CEP120_Y884_Q879H], the phosphorylation enrichment was 0.412. TIMTNYNPNFC [ALK_Y1092_D1091N_YF] gave a phosphorylation enrichment of 0.576. Sequence DFTSRYLSASD [PKHD1_Y828_N830S] has a phosphorylation enrichment of 0.535. With VQVAFYTMMMN [SPATA17_Y84_YF] the phosphorylation enrichment was 1.84. For DKANRYFSPNV [PTEN_Y336_F341V], the phosphorylation enrichment was 0.355.
